Reference: patent publication US20110263454A1, “Methods of Identifying Functional Characteristics of Promoters, Transcription Modifying Proteins and Transcription Modulating Agents” (Salk Institute for Biological Studies, priority 2008, published 2011)

B1: CTF1: COUP-TF1 (NR2F1), cDNA driver (protein, UniProt P10589 1-423, looked up)
COUP transcription factor 1: MAMVVSSWRDPQDDVAGGNPGGPNPAAQAARGGGGGAGEQQQQAGSGAPHTPQTPGQPGAPATPGTAGDKGQGPPGSGQSQQHIECVVCGDKSSGKHYGQFTCEGCKSFFKRSVRRNLTYTCRANRNCPIDQHHRNQCQYCRLKKCLKVGMRREAVQRGRMPPTQPNPGQYALTNGDPLNGHCYLSGYISLLLRAEPYPTSRYGSQCMQPNNIMGIENICELAARLLFSAVEWARNIPFFPDLQITDQVSLLRLTWSELFVLNAAQCSMPLHVAPLLAAAGLHASPMSADRVVAFMDHIRIFQEQVEKLKALHVDSAEYSCLKAIVLFTSDACGLSDAAHIESLQEKSQCALEEYVRSQYPNQPSRFGKLLLRLPSLRTVSSSVIEQLFFVRLVGKTPIETLIRDMLLSGSSFNWPYMSIQCS
B2: CTF2: COUP-TF2 (NR2F2), cDNA driver (protein, UniProt P24468 1-414, looked up)
COUP transcription factor 2: MAMVVSTWRDPQDEVPGSQGSQASQAPPVPGPPPGAPHTPQTPGQGGPASTPAQTAAGGQGGPGGPGSDKQQQQQHIECVVCGDKSSGKHYGQFTCEGCKSFFKRSVRRNLSYTCRANRNCPIDQHHRNQCQYCRLKKCLKVGMRREAVQRGRMPPTQPTHGQFALTNGDPLNCHSYLSGYISLLLRAEPYPTSRFGSQCMQPNNIMGIENICELAARMLFSAVEWARNIPFFPDLQITDQVALLRLTWSELFVLNAAQCSMPLHVAPLLAAAGLHASPMSADRVVAFMDHIRIFQEQVEKLKALHVDSAEYSCLKAIVLFTSDACGLSDVAHVESLQEKSQCALEEYVRSQYPNQPTRFGKLLLRLPSLRTVSSSVIEQLFFVRLVGKTPIETLIRDMLLSGSSFNWPYMAIQ
B3: CTF3: COUP-TF3 (NR2F6), cDNA driver (protein, UniProt P10588 1-404, looked up)
Nuclear receptor subfamily 2 …: MAMVTGGWGGPGGDTNGVDKAGGYPRAAEDDSASPPGAASDAEPGDEERPGLQVDCVVCGDKSSGKHYGVFTCEGCKSFFKRSIRRNLSYTCRSNRDCQIDQHHRNQCQYCRLKKCFRVGMRKEAVQRGRIPHSLPGAVAASSGSPPGSALAAVASGGDLFPGQPVSELIAQLLRAEPYPAAAGRFGAGGGAAGAVLGIDNVCELAARLLFSTVEWARHAPFFPELPVADQVALLRLSWSELFVLNAAQAALPLHTAPLLAAAGLHAAPMAAERAVAFMDQVRAFQEQVDKLGRLQVDSAEYGCLKAIALFTPDACGLSDPAHVESLQEKAQVALTEYVRAQYPSQPQRFGRLLLRLPALRAVPASLISQLFFMRLVGKTPIETLIRDMLLSGSTFNWPYGSGQ
B4: hMR: Mineralocorticoid Receptor (NR3C2, MR), cDNA driver (protein, UniProt P08235 1-984, looked up)
Mineralocorticoid receptor: METKGYHSLPEGLDMERRWGQVSQAVERSSLGPTERTDENNYMEIVNVSCVSGAIPNNSTQGSSKEKQELLPCLQQDNNRPGILTSDIKTELESKELSATVAESMGLYMDSVRDADYSYEQQNQQGSMSPAKIYQNVEQLVKFYKGNGHRPSTLSCVNTPLRSFMSDSGSSVNGGVMRAVVKSPIMCHEKSPSVCSPLNMTSSVCSPAGINSVSSTTASFGSFPVHSPITQGTPLTCSPNVENRGSRSHSPAHASNVGSPLSSPLSSMKSSISSPPSHCSVKSPVSSPNNVTLRSSVSSPANINNSRCSVSSPSNTNNRSTLSSPAASTVGSICSPVNNAFSYTASGTSAGSSTLRDVVPSPDTQEKGAQEVPFPKTEEVESAISNGVTGQLNIVQYIKPEPDGAFSSSCLGGNSKINSDSSFSVPIKQESTKHSCSGTSFKGNPTVNPFPFMDGSYFSFMDDKDYYSLSGILGPPVPGFDGNCEGSGFPVGIKQEPDDGSYYPEASIPSSAIVGVNSGGQSFHYRIGAQGTISLSRSARDQSFQHLSSFPPVNTLVESWKSHGDLSSRRSDGYPVLEYIPENVSSSTLRSVSTGSSRPSKICLVCGDEASGCHYGVVTCGSCKVFFKRAVEGQHNYLCAGRNDCIIDKIRRKNCPACRLQKCLQAGMNLGARKSKKLGKLKGIHEEQPQQQQPPPPPPPPQSPEEGTTYIAPAKEPSVNTALVPQLSTISRALTPSPVMVLENIEPEIVYAGYDSSKPDTAENLLSTLNRLAGKQMIQVVKWAKVLPGFKNLPLEDQITLIQYSWMCLSSFALSWRSYKHTNSQFLYFAPDLVFNEEKMHQSAMYELCQGMHQISLQFVRLQLTFEEYTIMKVLLLLSTIPKDGLKSQAAFEEMRTNYIKELRKMVTKCPNNSGQSWQRFYQLTKLLDSMHDLVSDLLEFCFYTFRESHALKVEFPAMLVEIISDQLPKVESGNAKPLYFHRK
B5: PR: Progesterone Receptor (NR3C3), cDNA driver (protein, UniProt P06401 1-933, looked up)
Progesterone receptor: MTELKAKGPRAPHVAGGPPSPEVGSPLLCRPAAGPFPGSQTSDTLPEVSAIPISLDGLLFPRPCQGQDPSDEKTQDQQSLSDVEGAYSRAEATRGAGGSSSSPPEKDSGLLDSVLDTLLAPSGPGQSQPSPPACEVTSSWCLFGPELPEDPPAAPATQRVLSPLMSRSGCKVGDSSGTAAAHKVLPRGLSPARQLLLPASESPHWSGAPVKPSPQAAAVEVEEEDGSESEESAGPLLKGKPRALGGAAAGGGAAAVPPGAAAGGVALVPKEDSRFSAPRVALVEQDAPMAPGRSPLATTVMDFIHVPILPLNHALLAARTRQLLEDESYDGGAGAASAFAPPRSSPCASSTPVAVGDFPDCAYPPDAEPKDDAYPLYSDFQPPALKIKEEEEGAEASARSPRSYLVAGANPAAFPDFPLGPPPPLPPRATPSRPGEAAVTAAPASASVSSASSSGSTLECILYKAEGAPPQQGPFAPPPCKAPGASGCLLPRDGLPSTSASAAAAGAAPALYPALGLNGLPQLGYQAAVLKEGLPQVYPPYLNYLRPDSEASQSPQYSFESLPQKICLICGDEASGCHYGVLTCGSCKVFFKRAMEGQHNYLCAGRNDCIVDKIRRKNCPACRLRKCCQAGMVLGGRKFKKFNKVRVVRALDAVALPQPVGVPNESQALSQRFTFSPGQDIQLIPPLINLLMSIEPDVIYAGHDNTKPDTSSSLLTSLNQLGERQLLSVVKWSKSLPGFRNLHIDDQITLIQYSWMSLMVFGLGWRSYKHVSGQMLYFAPDLILNEQRMKESSFYSLCLTMWQIPQEFVKLQVSQEEFLCMKVLLLLNTIPLEGLRSQTQFEEMRSSYIRELIKAIGLRQKGVVSSSQRFYQLTKLLDNLHDLVKQLHLYCLNTFIQSRALSVEFPEMMSEVIAAQLPKILAGMVKPLLFHKK

test system: mNPY promoter; assay: NHR-promoter luciferase screen, mNPY promoter; assay type: cell-based, mouse; conditions: Table 6d; luciferase activity relative to control (control = 1.00)
Procedure, shortened: (§1)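 CV-1 cells were co-transfected with 50 ng NHR (homodimer or NHR/RXR heterodimer), 100 ng promoter-luciferase construct and 50 ng LacZ. Luciferase was normalized to LacZ and to a no-NHR/no-ligand control.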

Molecule	Results of assays of transcription factor (+/- ligand) with mNPY
B1	0.47
B2	0.65
B3	0.48
B4	0.58
B5	1.09

same assay, conditions: mNPY promoter; HR component with or without ligand

Molecule	Luc. act., normalized to lacZ
B1	39.2
B2	54.7
B3	40.6
B4	48.9
B5	91.7

same assay, conditions: mNPY promoter; HR component with or without ligand; relative to control

Molecule	Normalized Luc. act., normalized to control
B1	0.5
B2	0.7
B3	0.5
B4	0.6
B5	1.1

test system: mLeptin promoter; assay: NHR-promoter luciferase screen, mLeptin promoter; assay type: cell-based, mouse; conditions: Table 7; mLeptin
Procedure, shortened: as §1

Molecule	Luc. act., normalized to lacZ	Normalized Luc. act., normalized to control
B1	3.1	1.1
B2	3.8	1.3
B3	2.7	0.9
B4	1.7	0.6
B5	2.2	0.8

same assay, conditions: Table 6d; luciferase activity relative to control (control = 1.00)

Molecule	Results of assays of transcription factor (+/- ligand) with mLeptin
B1	1.07
B2	1.31
B3	0.92
B4	0.57
B5	0.76

test system: mAdiponectin promoter; assay: NHR-promoter luciferase screen, mAdiponectin promoter; assay type: cell-based, mouse; conditions: Adiponectin; HR component without or with its ligand
Procedure, shortened: as §1

Molecule	Luc. act., normalized to lacZ	Normalized Luc. act., normalized to control
B1	118.7	1.9
B2	75.1	1.2
B3	71.0	1.1
B4	32.3	0.5
B5	52.9	0.8

same assay, conditions: transcription factor +/- ligand; control = 1.00

Molecule	mAdiponectin promoter reporter activity
B1	1.89
B2	1.20
B3	1.13
B4	0.51
B5	0.84

test system: mABCA1 promoter; assay: NHR-promoter luciferase screen, mABCA1 promoter; assay type: cell-based, mouse; conditions: ABCA1 promoter; hormone receptor with or without its ligand
Procedure, shortened: as §1

Molecule	Luc. act., normalized to lacZ
B1	5.5
B2	4.7
B3	5.6
B4	6.8
B5	8.9

same assay, conditions: ABCA1 promoter; hormone receptor with or without its ligand; relative to control

Molecule	Normalized Luc. act., normalized to control
B1	1.0
B2	0.8
B3	1.0
B4	1.2
B5	1.6

same assay, conditions: transcription factor +/- ligand; control = 1.00

Molecule	mABCA1 promoter reporter activity
B1	0.99
B2	0.84
B3	1.01
B4	1.21
B5	1.58

test system: mUCP3 promoter; assay: NHR-promoter luciferase screen, mUCP3 promoter; assay type: cell-based, mouse; conditions: mUCP3 promoter reporter; HR without or with its ligand; relative to control
Procedure, shortened: as §1

Molecule	Normalized Luc. act., normalized to control
B1	0.9
B2	0.9
B3	0.8
B4	0.7
B5	1.3

same assay, conditions: mUCP3 promoter reporter; hormone receptor (HR) without or with its ligand

Molecule	Luc. act., normalized to lacZ
B1	0.6
B2	0.6
B3	0.6
B4	0.50
B5	0.86

same assay, conditions: transcription factor +/- ligand; control = 1.00

Molecule	mUCP3 promoter reporter activity
B1	0.93
B2	0.91
B3	0.82
B4	0.74
B5	1.27

test system: hCAR promoter; assay: NHR-promoter luciferase screen, hCAR promoter; assay type: cell-based, human; conditions: hCAR promoter-luciferase, CV-1 cells, NHR +/- ligand, control = 1.00
Procedure, shortened: as §1

Molecule	luciferase activity normalized to lacZ activity and to a control, hCAR
B1	0.14
B2	0.23
B3	0.14
B4	0.81
B5	1.00

same assay, conditions: hCAR promoter; HR/ligand component

Molecule	Luc. act., normalized to lacZ	Normalized Luc. act., normalized to control
B1	4.5	0.1
B2	7.2	0.2
B3	4.5	0.1
B4	25.6	0.8
B5	31.5	1.0
